Data: US20090186824A1 (INIMEX PHARMACEUTICALS, published 2009)
Bridges are numbered along the chain shown (N, C = ends). Where no end group is shown, it is not given here. [ ]: non-standard residue; d: D form.

What follows are binders tested against dipeptidyl peptidase IV (DPPIV) in plasma of ICR mouse blood (mouse, UniProt P28843 37-760) (assay: cell-based or functional assay).
Chain of dipeptidyl peptidase IV (DPPIV) in plasma of ICR mouse blood (P28843 37-760 limits assumed): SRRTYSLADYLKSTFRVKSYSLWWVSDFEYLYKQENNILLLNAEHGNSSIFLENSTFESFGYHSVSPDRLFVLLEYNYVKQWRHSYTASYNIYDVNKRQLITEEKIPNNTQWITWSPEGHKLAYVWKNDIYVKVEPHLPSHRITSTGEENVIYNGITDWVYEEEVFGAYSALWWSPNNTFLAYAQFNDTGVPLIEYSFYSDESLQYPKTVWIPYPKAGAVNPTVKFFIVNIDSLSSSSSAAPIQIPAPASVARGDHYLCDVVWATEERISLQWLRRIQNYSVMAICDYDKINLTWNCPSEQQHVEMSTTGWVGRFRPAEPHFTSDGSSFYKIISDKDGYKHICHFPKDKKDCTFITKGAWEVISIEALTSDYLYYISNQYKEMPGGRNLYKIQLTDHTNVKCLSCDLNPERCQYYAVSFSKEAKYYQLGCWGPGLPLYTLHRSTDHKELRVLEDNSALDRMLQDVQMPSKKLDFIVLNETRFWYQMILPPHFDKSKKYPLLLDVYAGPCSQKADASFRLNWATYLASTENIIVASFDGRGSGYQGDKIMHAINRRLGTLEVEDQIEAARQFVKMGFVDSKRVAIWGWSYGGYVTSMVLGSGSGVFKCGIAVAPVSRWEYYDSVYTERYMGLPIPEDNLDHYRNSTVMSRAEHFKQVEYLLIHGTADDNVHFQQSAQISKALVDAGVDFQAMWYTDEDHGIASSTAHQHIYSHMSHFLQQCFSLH

Compared with Ac-KSRIVP-NH2 [SEQ ID NO 2], CRIVPAC (disulfide 1-7; not fully specified (C-terminus)) [SEQ ID NO 32] is lower in “% DPPIV Activity (Saline)” value: 93 % relative to saline control for the first, 30 % relative to saline control for the second.

For [code r][code r]VP-NH2 (not fully specified) [SEQ ID NO 62], the “% DPPIV Activity (Saline)” value was 51 % relative to saline control.
